# Test system: 3-methylcrotonic acid
# Type: biochemical, Yersinia frederiksenii
# Set-up: key: “+” representing a low increase in activity; “++++” representing a high increase in activity
row,Molecule,Activity relative to WT
1,I283T-N285P-N287T-Q290E-S322T-N388M-K394R-C430A-L432F-L434W-S436N-i447aP-dG462 (protein) MFLKSLREQINLLKRQGDLRIINRPVDSYLEAAAIIRRSTETKAPVPLMTNIKGYPGCSIVGGLAALSSNPEYPLSRVAMSLGLSTTASAQSIVQYLIDGLKKTPYLPVEIDSNSAPCKQNILRGEDASLAHFPIPQVHQHDGNRYVNTWGVFIVESPDGQWCNWSIQRVQYLNDRQMIALVFPSQHISDIWEEWVKIGKPMPYALVQGCEPIVPYIAGLPLLERNVNEAEYIGALYGKGIEVVKCETHDLRVPASSEVVIEGYFAITREGVEGPFGEFAGYTPPETSLEPILSITAISWQDDPIWPVVAEGKPVDEYHTCTGIGDAAAIQNVLLTANLPVSFVWVPLYSACHLMIVSINRHWRQTHPDLTSEQLTKKVGDVIHQTRMSIKLPRIVVLDDDVDPADTESLLWALATRIHPERKRYFYESAIFPWLNCYSEEERHNRKGKRVIIDALLPENHGAISSFDYAYPDDIKQRVLMHWETDFSHD,++++
2,I283T-N285P-N287T-Q290E-S322T-N388M-K394R-E421F-C430A-i430aN-L432F-L434W-S436N-dG462 (protein) MFLKSLREQINLLKRQGDLRIINRPVDSYLEAAAIIRRSTETKAPVPLMTNIKGYPGCSIVGGLAALSSNPEYPLSRVAMSLGLSTTASAQSIVQYLIDGLKKTPYLPVEIDSNSAPCKQNILRGEDASLAHFPIPQVHQHDGNRYVNTWGVFIVESPDGQWCNWSIQRVQYLNDRQMIALVFPSQHISDIWEEWVKIGKPMPYALVQGCEPIVPYIAGLPLLERNVNEAEYIGALYGKGIEVVKCETHDLRVPASSEVVIEGYFAITREGVEGPFGEFAGYTPPETSLEPILSITAISWQDDPIWPVVAEGKPVDEYHTCTGIGDAAAIQNVLLTANLPVSFVWVPLYSACHLMIVSINRHWRQTHPDLTSEQLTKKVGDVIHQTRMSIKLPRIVVLDDDVDPADTESLLWALATRIHPFRKRYFYESAIFPWLNCYSEEERHNRKGKRVIIDALLPENHGAISSFDYAYPDDIKQRVLMHWETDFSHD,++++
3,I283T-N285P-N287T-Q290E-S322T-N388M-K394R-E421F-C430A-i430aL-L432F-L434W-S436N-dG462 (protein) MFLKSLREQINLLKRQGDLRIINRPVDSYLEAAAIIRRSTETKAPVPLMTNIKGYPGCSIVGGLAALSSNPEYPLSRVAMSLGLSTTASAQSIVQYLIDGLKKTPYLPVEIDSNSAPCKQNILRGEDASLAHFPIPQVHQHDGNRYVNTWGVFIVESPDGQWCNWSIQRVQYLNDRQMIALVFPSQHISDIWEEWVKIGKPMPYALVQGCEPIVPYIAGLPLLERNVNEAEYIGALYGKGIEVVKCETHDLRVPASSEVVIEGYFAITREGVEGPFGEFAGYTPPETSLEPILSITAISWQDDPIWPVVAEGKPVDEYHTCTGIGDAAAIQNVLLTANLPVSFVWVPLYSACHLMIVSINRHWRQTHPDLTSEQLTKKVGDVIHQTRMSIKLPRIVVLDDDVDPADTESLLWALATRIHPFRKRYFYESAIFPWLNCYSEEERHNRKGKRVIIDALLPENHGAISSFDYAYPDDIKQRVLMHWETDFSHD,++++
4,I283T-N285P-N287T-Q290E-S322T-N388M-K394R-E421F-C430A-i430aG-L432F-L434W-S436N-dG462 (protein) MFLKSLREQINLLKRQGDLRIINRPVDSYLEAAAIIRRSTETKAPVPLMTNIKGYPGCSIVGGLAALSSNPEYPLSRVAMSLGLSTTASAQSIVQYLIDGLKKTPYLPVEIDSNSAPCKQNILRGEDASLAHFPIPQVHQHDGNRYVNTWGVFIVESPDGQWCNWSIQRVQYLNDRQMIALVFPSQHISDIWEEWVKIGKPMPYALVQGCEPIVPYIAGLPLLERNVNEAEYIGALYGKGIEVVKCETHDLRVPASSEVVIEGYFAITREGVEGPFGEFAGYTPPETSLEPILSITAISWQDDPIWPVVAEGKPVDEYHTCTGIGDAAAIQNVLLTANLPVSFVWVPLYSACHLMIVSINRHWRQTHPDLTSEQLTKKVGDVIHQTRMSIKLPRIVVLDDDVDPADTESLLWALATRIHPFRKRYFYESAIFPWLNCYSEEERHNRKGKRVIIDALLPENHGAISSFDYAYPDDIKQRVLMHWETDFSHD,++++
5,I283T-N285P-N287T-Q290E-S322T-N388M-K394R-C430A-i431aL-L432F-L434W-S436N-dG462 (protein) MFLKSLREQINLLKRQGDLRIINRPVDSYLEAAAIIRRSTETKAPVPLMTNIKGYPGCSIVGGLAALSSNPEYPLSRVAMSLGLSTTASAQSIVQYLIDGLKKTPYLPVEIDSNSAPCKQNILRGEDASLAHFPIPQVHQHDGNRYVNTWGVFIVESPDGQWCNWSIQRVQYLNDRQMIALVFPSQHISDIWEEWVKIGKPMPYALVQGCEPIVPYIAGLPLLERNVNEAEYIGALYGKGIEVVKCETHDLRVPASSEVVIEGYFAITREGVEGPFGEFAGYTPPETSLEPILSITAISWQDDPIWPVVAEGKPVDEYHTCTGIGDAAAIQNVLLTANLPVSFVWVPLYSACHLMIVSINRHWRQTHPDLTSEQLTKKVGDVIHQTRMSIKLPRIVVLDDDVDPADTESLLWALATRIHPERKRYFYESAIFPWLNCYSEEERHNRKGKRVIIDALLPENHGAISSFDYAYPDDIKQRVLMHWETDFSHD,++++
6,I283T-N285P-N287T-Q290E-S322T-N388M-K394R-C430A-i431aN-L432F-L434W-S436N-dG462 (protein) MFLKSLREQINLLKRQGDLRIINRPVDSYLEAAAIIRRSTETKAPVPLMTNIKGYPGCSIVGGLAALSSNPEYPLSRVAMSLGLSTTASAQSIVQYLIDGLKKTPYLPVEIDSNSAPCKQNILRGEDASLAHFPIPQVHQHDGNRYVNTWGVFIVESPDGQWCNWSIQRVQYLNDRQMIALVFPSQHISDIWEEWVKIGKPMPYALVQGCEPIVPYIAGLPLLERNVNEAEYIGALYGKGIEVVKCETHDLRVPASSEVVIEGYFAITREGVEGPFGEFAGYTPPETSLEPILSITAISWQDDPIWPVVAEGKPVDEYHTCTGIGDAAAIQNVLLTANLPVSFVWVPLYSACHLMIVSINRHWRQTHPDLTSEQLTKKVGDVIHQTRMSIKLPRIVVLDDDVDPADTESLLWALATRIHPERKRYFYESAIFPWLNCYSEEERHNRKGKRVIIDALLPENHGAISSFDYAYPDDIKQRVLMHWETDFSHD,++++
7,I283T-N285P-N287T-Q290E-S322T-N388M-K394R-C430A-L432F-L434W-S436N-i448aS-dG462 (protein) MFLKSLREQINLLKRQGDLRIINRPVDSYLEAAAIIRRSTETKAPVPLMTNIKGYPGCSIVGGLAALSSNPEYPLSRVAMSLGLSTTASAQSIVQYLIDGLKKTPYLPVEIDSNSAPCKQNILRGEDASLAHFPIPQVHQHDGNRYVNTWGVFIVESPDGQWCNWSIQRVQYLNDRQMIALVFPSQHISDIWEEWVKIGKPMPYALVQGCEPIVPYIAGLPLLERNVNEAEYIGALYGKGIEVVKCETHDLRVPASSEVVIEGYFAITREGVEGPFGEFAGYTPPETSLEPILSITAISWQDDPIWPVVAEGKPVDEYHTCTGIGDAAAIQNVLLTANLPVSFVWVPLYSACHLMIVSINRHWRQTHPDLTSEQLTKKVGDVIHQTRMSIKLPRIVVLDDDVDPADTESLLWALATRIHPERKRYFYESAIFPWLNCYSEEERHNRKGKRVIIDALLPENHGAISSFDYAYPDDIKQRVLMHWETDFSHD,++++
8,I283T-N285P-N287T-Q290E-S322T-N388M-K394R-C430A-i431aG-L432F-L434W-S436N-dG462 (protein) MFLKSLREQINLLKRQGDLRIINRPVDSYLEAAAIIRRSTETKAPVPLMTNIKGYPGCSIVGGLAALSSNPEYPLSRVAMSLGLSTTASAQSIVQYLIDGLKKTPYLPVEIDSNSAPCKQNILRGEDASLAHFPIPQVHQHDGNRYVNTWGVFIVESPDGQWCNWSIQRVQYLNDRQMIALVFPSQHISDIWEEWVKIGKPMPYALVQGCEPIVPYIAGLPLLERNVNEAEYIGALYGKGIEVVKCETHDLRVPASSEVVIEGYFAITREGVEGPFGEFAGYTPPETSLEPILSITAISWQDDPIWPVVAEGKPVDEYHTCTGIGDAAAIQNVLLTANLPVSFVWVPLYSACHLMIVSINRHWRQTHPDLTSEQLTKKVGDVIHQTRMSIKLPRIVVLDDDVDPADTESLLWALATRIHPERKRYFYESAIFPWLNCYSEEERHNRKGKRVIIDALLPENHGAISSFDYAYPDDIKQRVLMHWETDFSHD,++++
9,I283T-N285P-N287T-Q290E-S322T-N388M-K394R-C430A-L432F-L434W-S436N-i449aS-dG462 (protein) MFLKSLREQINLLKRQGDLRIINRPVDSYLEAAAIIRRSTETKAPVPLMTNIKGYPGCSIVGGLAALSSNPEYPLSRVAMSLGLSTTASAQSIVQYLIDGLKKTPYLPVEIDSNSAPCKQNILRGEDASLAHFPIPQVHQHDGNRYVNTWGVFIVESPDGQWCNWSIQRVQYLNDRQMIALVFPSQHISDIWEEWVKIGKPMPYALVQGCEPIVPYIAGLPLLERNVNEAEYIGALYGKGIEVVKCETHDLRVPASSEVVIEGYFAITREGVEGPFGEFAGYTPPETSLEPILSITAISWQDDPIWPVVAEGKPVDEYHTCTGIGDAAAIQNVLLTANLPVSFVWVPLYSACHLMIVSINRHWRQTHPDLTSEQLTKKVGDVIHQTRMSIKLPRIVVLDDDVDPADTESLLWALATRIHPERKRYFYESAIFPWLNCYSEEERHNRKGKRVIIDALLPENHGAISSFDYAYPDDIKQRVLMHWETDFSHD,++++
10,L223Y-I283T-N285P-N287T-Q290E-S322T-N388M-K394R-E421F-C430A-L432F-L434W-S436N-dG462 (protein) MFLKSLREQINLLKRQGDLRIINRPVDSYLEAAAIIRRSTETKAPVPLMTNIKGYPGCSIVGGLAALSSNPEYPLSRVAMSLGLSTTASAQSIVQYLIDGLKKTPYLPVEIDSNSAPCKQNILRGEDASLAHFPIPQVHQHDGNRYVNTWGVFIVESPDGQWCNWSIQRVQYLNDRQMIALVFPSQHISDIWEEWVKIGKPMPYALVQGCEPIVPYIAGLPLYERNVNEAEYIGALYGKGIEVVKCETHDLRVPASSEVVIEGYFAITREGVEGPFGEFAGYTPPETSLEPILSITAISWQDDPIWPVVAEGKPVDEYHTCTGIGDAAAIQNVLLTANLPVSFVWVPLYSACHLMIVSINRHWRQTHPDLTSEQLTKKVGDVIHQTRMSIKLPRIVVLDDDVDPADTESLLWALATRIHPFRKRYFYESAIFPWLNCYSEEERHNRKGKRVIIDALLPENHGAISSFDYAYPDDIKQRVLMHWETDFSHD,++++
